From publication PMC2580753 come the findings set out here.

Common to all, as to assay: SPR
Experiment [1] concerns the target Monomeric IgA1 (Mce), a naturally undergalactosylated myeloma IgA1 protein (human).
Experiment [2] deals with Monomeric myeloma patient-derived IgA1λ (mIgA1λ) (human).
Experiment [3] addresses Monomeric myeloma patient-derived IgA1κ (mIgA1κ) (human).
The target is the same in experiment [4]. This is another data set of the same source.
The target of experiment [5] is Deglycosylated mIgA1κ (N-glycans removed enzymatically) (human).
Experiment [6] has as its target Monomeric myeloma patient-derived IgA1κ (mIgA1κ) (human). This is another data set of the same source.
For experiment [7], the target named is Deglycosylated mIgA1κ (N-glycans removed enzymatically) (human). This is another data set of the same source.
In experiment [8] the target is Fcα (IgA1-Fc core fragment, CH2-CH3) (UniProt P01876). The note with it: pH 7.4, 25 °C, 150 mM NaCl, TBS-P: 20 mM Tris.
Fcα (IgA1-Fc core fragment, CH2-CH3), sequence (P01876 whole entry, the tested form may be a part): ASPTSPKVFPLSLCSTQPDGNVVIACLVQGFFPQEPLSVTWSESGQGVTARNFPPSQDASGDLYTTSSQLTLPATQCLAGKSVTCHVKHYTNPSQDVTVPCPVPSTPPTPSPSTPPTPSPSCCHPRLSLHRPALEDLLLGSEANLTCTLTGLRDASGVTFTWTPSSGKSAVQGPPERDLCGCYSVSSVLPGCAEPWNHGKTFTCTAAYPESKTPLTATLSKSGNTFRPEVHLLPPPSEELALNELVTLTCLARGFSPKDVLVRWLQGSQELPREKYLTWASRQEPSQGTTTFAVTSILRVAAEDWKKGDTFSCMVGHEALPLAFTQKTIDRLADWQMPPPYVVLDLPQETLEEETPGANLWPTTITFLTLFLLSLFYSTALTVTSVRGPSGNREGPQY
Experiment [9] has as its target mIgA1κ (monomeric myeloma IgA1, kappa light chain) (UniProt P01876). Conditions: pH 7.4, 25 °C, 150 mM NaCl, TBS-P: 20 mM Tris.
The target is the same in experiment [10]. The note with it: pH 7.4, 25 °C, 150 mM NaCl, TBS-P: 20 mM Tris. This is another data set of the same source.

Read-outs that look alike come from different tables or passages of the source.

Soluble recombinant FcαRI ectodomain, sequence (P24071 22-227): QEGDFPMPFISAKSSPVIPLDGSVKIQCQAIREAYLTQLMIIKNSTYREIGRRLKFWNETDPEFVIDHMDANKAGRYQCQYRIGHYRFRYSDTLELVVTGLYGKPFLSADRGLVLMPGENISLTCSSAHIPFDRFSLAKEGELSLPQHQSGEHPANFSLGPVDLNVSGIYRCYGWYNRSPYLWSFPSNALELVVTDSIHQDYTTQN
mIgA1κ (monomeric myeloma IgA1, kappa light chain), sequence (P01876 whole entry): as the sequence (P01876 whole entry, the tested form may be a part) above

In experiment [1], “Soluble recombinant FcαRI ectodomain (from UniProt P24071 22-227) (receptor)” yielded a KD1 (first binding event) of 72.3 nM, a KD1 (two-site equilibrium model) of 40.8 nM, a KD2 (second binding event) of 222 nM and a KD2 (two-site equilibrium model) of 403 nM. In addition, in experiment [2], the KD1 (two-site equilibrium model) came to 47.6 nM, the KD2 (second binding event) is 195 nM, the KD2 (two-site equilibrium model) turned out to be 371 nM and the k1off (first binding event) amounted to 0.0254 s⁻¹. In experiment [2], the k1on (first binding event) came out at 312000 M/s, the k2off (second binding event) worked out at 0.102 s⁻¹ and the k2on (second binding event) worked out at 525000 M/s. Besides, in experiment [3], the KD1 (first binding event) is 74.9 nM, the KD1 (two-site equilibrium model) was determined as 40.2 nM, the KD1 at pH 5.5 (first binding event) is 837 nM and the KD2 (second binding event) was 244 nM. For the same substance, in experiment [3], the KD2 (two-site equilibrium model) came to 452 nM, the KD2 at pH 5.5 (second binding event) was found to be 2.53 μM, the k1off (first binding event) worked out at 0.0266 s⁻¹ and the k1on (first binding event) was 355000 M/s. Further, the k2on (second binding event) in experiment [3] stood at 304000 M/s. Moreover, in experiment [4], the k1off (first binding event) is 0.0267 s⁻¹, the k1on (first binding event) came out at 317000 M/s and the k2on (second binding event) came to 315000 M/s. In experiment [5], this substance registered a KD1 (first binding event) of 78.4 nM, a KD2 (second binding event) of 320 nM, a k1off (first binding event) of 0.0258 s⁻¹ and a k1on (first binding event) of 329000 M/s. In experiment [5], this substance returned a k2on (second binding event) of 187000 M/s. In experiment [6], this substance displayed a KD1 (two-site equilibrium model) of 45 nM and a KD2 (two-site equilibrium model) of 571 nM. Further, in experiment [7], the KD1 (two-site equilibrium model) stood at 42.6 nM and the KD2 (two-site equilibrium model) came to 582 nM.
In [8], FcαRI (CD89) soluble ectodomain gave a k1off of 0.0278 s⁻¹, a k1on of 461000 M/s, a k2off of 0.054 s⁻¹ and a k2on of 447000 M/s. In experiment [9], this substance returned a k1off of 0.0266 s⁻¹, a k1on of 355000 M/s, a k2off of 0.074 s⁻¹ and a k2on of 304000 M/s. In experiment [10], the k1off was found to be 0.0267 s⁻¹, the k1on turned out to be 317000 M/s, the k2off was determined as 0.096 s⁻¹ and the k2on was 315000 M/s.
